Measured values published in patent US12698507B2, “Methods and compositions for conferring and/or enhancing herbicide tolerance using protoporphyrinogen IX oxidase of various cyanobacteria or variant thereof” (FarmHannong Co., Ltd., priority 2019, dated 2026).
Changes are numbered by the printed parent chain. In names and notes the source's numbering stands.

B1: CyPPO19 A167C + V305L + F360V: variant of CyPPO19 PPO protein (SEQ ID NO: 1) (protein)
chain: MSEVDVAIVGGGLSGLSLAWRLQQSAPQYSVVLLEASDRLGGNITTQTAEGFVWELGPNSFAPTPALLQLIAEVGLQSELIRGDRHLPRYIYWRGQLYPLQPTRPLALATSNLLSPWGKVRAALGALGFVPPYLGSGDESVNSFFRRHLGQEVAERLVAPFVSGVYCGDPQQLSAAAAFRRIAQLEKLGGGLIAGALHLRRQQAPKPKPPTSVQMRPGELGSFKEGLAALPRAIAQQLKAPIHLQTPVQEITPDPKGGYLLRSGEQTWRARSVVLATPAYQTAELVAPFQPAIARVLATIPYPTLACVVLAYPAGLGRSVRPGFGVLIPRSQGIRTLGTIWSSCLFPQRTPAGWQVFTSVIGGATDPDLASLSEEAIVQQVQQDLNRLLDLPAAKARLLGMKVWRRAIPQYMVGYPEQWQQVTHALSQTPGLFLCSNYAEGVALGDRVEHGNRTAAAVAAYLSGGQP
modifications: Synthetic_PPO of Thermosynechococcus elongatus PKUAC-SCTE542 (comprising GenBank No. CP032152.1)
B2: CyPPO19 A167C + I408W + F360I: variant of CyPPO19 PPO protein (SEQ ID NO: 1) (protein)
chain: B1 chain with L305V, V360I, I408W
modifications: Synthetic_PPO of Thermosynechococcus elongatus PKUAC-SCTE542 (comprising GenBank No. CP032152.1)
B3: CyPPO19 V305M + L327T + F360I: variant of CyPPO19 PPO protein (SEQ ID NO: 1) (protein)
chain: B1 chain with C167A, L305M, L327T, V360I
modifications: Synthetic_PPO of Thermosynechococcus elongatus PKUAC-SCTE542 (comprising GenBank No. CP032152.1)
B4: CyPPO19 A167L + I408R + F360L: variant of CyPPO19 PPO protein (SEQ ID NO: 1) (protein)
chain: B1 chain with C167L, L305V, V360L, I408R
modifications: Synthetic_PPO of Thermosynechococcus elongatus PKUAC-SCTE542 (comprising GenBank No. CP032152.1)
B5: CyPPO19 A167C + L327T + F360I: variant of CyPPO19 PPO protein (SEQ ID NO: 1) (protein)
chain: B1 chain with L305V, L327T, V360I
modifications: Synthetic_PPO of Thermosynechococcus elongatus PKUAC-SCTE542 (comprising GenBank No. CP032152.1)
B6: CyPPO19 A167I + L327T + F360V: variant of CyPPO19 PPO protein (SEQ ID NO: 1) (protein)
chain: B1 chain with C167I, L305V, L327T
modifications: Synthetic_PPO of Thermosynechococcus elongatus PKUAC-SCTE542 (comprising GenBank No. CP032152.1)
B7: CyPPO19 A167L + V305M + F360T: variant of CyPPO19 PPO protein (SEQ ID NO: 1) (protein)
chain: B1 chain with C167L, L305M, V360T
modifications: Synthetic_PPO of Thermosynechococcus elongatus PKUAC-SCTE542 (comprising GenBank No. CP032152.1)
B8: CyPPO19 A167L + L327T + F360M: variant of CyPPO19 PPO protein (SEQ ID NO: 1) (protein)
chain: B1 chain with C167L, L305V, L327T, V360M
modifications: Synthetic_PPO of Thermosynechococcus elongatus PKUAC-SCTE542 (comprising GenBank No. CP032152.1)
B9: CyPPO19 V305L + L327T + F360V: variant of CyPPO19 PPO protein (SEQ ID NO: 1) (protein)
chain: B1 chain with C167A, L327T
modifications: Synthetic_PPO of Thermosynechococcus elongatus PKUAC-SCTE542 (comprising GenBank No. CP032152.1)
B10: CyPPO19 A167I + I408W + F360V: variant of CyPPO19 PPO protein (SEQ ID NO: 1) (protein)
chain: B1 chain with C167I, L305V, I408W
modifications: Synthetic_PPO of Thermosynechococcus elongatus PKUAC-SCTE542 (comprising GenBank No. CP032152.1)

The molecules below were run on PPO-deficient BT3 E. coli (ΔPPO) (assay: PPO-inhibiting herbicide tolerance test of PPO variants in E. coli (growth on herbicide-containing LB agar)). Conditions: CyPPO19 variants in BT3 (ΔPPO) E. coli; LB agar with 0 to 2,000 μM herbicide, 37° C., dark, 16-20 hours.
Assay type: cell-based
Method in brief: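 Transformants were grown to OD600 0.5–1, adjusted to OD600=0.5 and spotted as 10-fold dilutions on LB agar with ampicillin (100 μg/mL) and 0 to 2,000 μM herbicide. Plates were kept at 37° C in the dark for 16-20 hours; growth was scored relative to wild type, one '+' per 10-fold resistance.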

Molecule | tolerance level relative to wild type, Carfentrazone | tolerance level relative to wild type, Flumioxazin | tolerance level relative to wild type, Fomesafen | tolerance level relative to wild type, Oxyfluorfen | tolerance level relative to wild type, Saflufenacil | tolerance level relative to wild type, Sulfentrazone | tolerance level relative to wild type, Tiafenacil
B1 | + (‘+’ per each 10-fold resistance) | +++++ (until ‘+++++’ as maximal resistance) | + (‘+’ per each 10-fold resistance) | ++ (‘+’ per each 10-fold resistance) | +++++ (until ‘+++++’ as maximal resistance) | + (‘+’ per each 10-fold resistance) | ++++ (‘+’ per each 10-fold resistance)
B2 | + (‘+’ per each 10-fold resistance) | +++++ (until ‘+++++’ as maximal resistance) | +++ (‘+’ per each 10-fold resistance) | +++ (‘+’ per each 10-fold resistance) | +++++ (until ‘+++++’ as maximal resistance) | +++++ (until ‘+++++’ as maximal resistance) | +++++ (until ‘+++++’ as maximal resistance)
B3 | + (‘+’ per each 10-fold resistance) | ++++ (‘+’ per each 10-fold resistance) | + (‘+’ per each 10-fold resistance) | ++ (‘+’ per each 10-fold resistance) | ++ (‘+’ per each 10-fold resistance) | ++ (‘+’ per each 10-fold resistance) | ++++ (‘+’ per each 10-fold resistance)
B4 | + (‘+’ per each 10-fold resistance) | ++++ (‘+’ per each 10-fold resistance) | +++ (‘+’ per each 10-fold resistance) | +++ (‘+’ per each 10-fold resistance) | ++++ (‘+’ per each 10-fold resistance) | ++++ (‘+’ per each 10-fold resistance) | ++++ (‘+’ per each 10-fold resistance)
B5 | + (‘+’ per each 10-fold resistance) | ++++ (‘+’ per each 10-fold resistance) | ++ (‘+’ per each 10-fold resistance) | +++ (‘+’ per each 10-fold resistance) | +++ (‘+’ per each 10-fold resistance) | ++++ (‘+’ per each 10-fold resistance) | ++++ (‘+’ per each 10-fold resistance)
B6 | + (‘+’ per each 10-fold resistance) | +++++ (until ‘+++++’ as maximal resistance) | +++ (‘+’ per each 10-fold resistance) | +++ (‘+’ per each 10-fold resistance) | +++++ (until ‘+++++’ as maximal resistance) | +++++ (until ‘+++++’ as maximal resistance) | +++++ (until ‘+++++’ as maximal resistance)
B7 | + (‘+’ per each 10-fold resistance) | +++++ (until ‘+++++’ as maximal resistance) | +++ (‘+’ per each 10-fold resistance) | +++ (‘+’ per each 10-fold resistance) | +++++ (until ‘+++++’ as maximal resistance) | +++++ (until ‘+++++’ as maximal resistance) | ++++ (‘+’ per each 10-fold resistance)
B8 | + (‘+’ per each 10-fold resistance) | +++++ (until ‘+++++’ as maximal resistance) | +++ (‘+’ per each 10-fold resistance) | +++ (‘+’ per each 10-fold resistance) | +++++ (until ‘+++++’ as maximal resistance) | +++++ (until ‘+++++’ as maximal resistance) | +++++ (until ‘+++++’ as maximal resistance)
B9 | + (‘+’ per each 10-fold resistance) | +++++ (until ‘+++++’ as maximal resistance) | + (‘+’ per each 10-fold resistance) | +++ (‘+’ per each 10-fold resistance) | +++ (‘+’ per each 10-fold resistance) | ++ (‘+’ per each 10-fold resistance) | +++++ (until ‘+++++’ as maximal resistance)
B10 | + (‘+’ per each 10-fold resistance) | ++++ (‘+’ per each 10-fold resistance) | + (‘+’ per each 10-fold resistance) | ++ (‘+’ per each 10-fold resistance) | ++++ (‘+’ per each 10-fold resistance) | +++ (‘+’ per each 10-fold resistance) | ++++ (‘+’ per each 10-fold resistance)
